What was measured:
[1] = Effect of PRT6 administration on blood serum testosterone level (R&D Systems Testosterone Immunoassay); format: in vivo, Balb/C mice
Experimental: Two groups of Balb/C mice were used: • 3-4 week-old male Balb/C—Negative control for testosterone—18 mice • 7-8 week-old male Balb/C mice—18 mice
Each group was divided into 3 sub-groups (6 mice each). Each group was injected every day for a 4 day-period with 200 μl of one of the following: • 4% DMSO in double-distilled water (DDW) • 0.5 μg/kg of PRT6 (diluted in DDW) • 5 μg/kg of PRT6 (diluted in DDW)
After 4 days, blood serum was extracted from the mice and tested for testosterone levels. Testosterone measurement was done using the R&D Systems Testosterone Immunoassay (R&D Systems Catalog Number KGE010). This assay is based on the competitive binding technique. A monoclonal antibody specific for testosterone binds to the goat anti-mouse antibody coated onto the microplate. Following a wash to remove excess monoclonal antibody, testosterone present in the sample competes with a fixed amount of horseradish peroxidase (HRP)-labeled testosterone for sites on the monoclonal antibody. This is followed by another wash to remove excess conjugate and unbound sample. A substrate solution is added to the wells to determine the bound enzyme activity. Color development is stopped, and absorbance is read at 450 nm. The intensity of the color is inversely proportional to the concentration of testosterone in the sample.

[2] = IPGTT in mice treated with streptozotocyn (STZ), after 4-5 weeks of peptide treatment; format: in vivo, C57B1/6 mice; details: STZ-treated C57B1/6 male mice; PRT8 100 μg/mice; sbPRT8 20, 100 or 300 μg/mice; 4 or 5 weeks of treatment; sbPRT8 compared with PRT8
Text: In the following experiments, a sbPRT8 peptide blocked with an acetyl moiety at the N-terminal end and an amide moiety (NH2) at the C-terminal end has been employed. The effect of sbPRT8 administration on glucose levels was examined and compared to the effect obtained with PRT8 in mice treated with streptozocin (STZ). As known in the art, STZ is a chemical compound that is particularly toxic to the insulin-producing beta cells of the pancreas in mammals. It is used in medicine for treating certain cancers of the Islets of Langerhans and used in medical research to produce an animal model for Type 1 diabetes as well as Type 2 diabetes.
(§1) C57B1/6 males mice were purchased from Harlan Laboratories Ltd., Jerusalem, Israel, After 7 days of rest, mice were IP injected with 50 mg/kg STZ for 4 days. Five days after STZ injection, mice were treated as follows: • Group A (control)—100 μg/mice of PRT8 (control) • Group B (treatment)—20 μg/mice of sbPRT8 (treatment 1) • Group C (control)—100 μg/mice of sbPRT8 (treatment 2)
After 5 weeks of treatment mice were starved for food only for 12 h and then were IP injected with […] of glucose solution (IPGTT). The level of glucose in mice blood was measured with Accucheck glucometer (Roche) at t=0, 15, 30, 60, 90 and 120 minutes following glucose injection.
as §1, with “Jerusalem, Israel.” for “Jerusalem, Israel,”, “B (treatment)—100” for “B (treatment)—20”, “C (control)—300” for “C (control)—100”
After 4 weeks of treatment mice were starved for food only for 12 h and then were IP injected with […] of glucose solution (IPGTT). The level of glucose in mice blood was measured with Accucheck glucometer (Roche) at t=0, 15, 30, 60, 90 and 120 minutes following glucose injection.

[3] = Effect of PRT8 administration on glucose levels after glucose injection in starved mice; format: in vivo, C57B1 mice; details: 1 μg/kg or 10 μg/kg PRT8
Experimental: All the mice were injected with PRT8 (or saline) on day 1. The first group was starved on day 2 and checked for blood glucose levels (using an Accu-Chek®Performa device, Roche Diagnostics) on day three. The second group was starved and checked for blood glucose levels three days after injection. Starvation was done overnight (the night before glucose injection), and the next day 2 mg/kg of glucose was injected to each mouse. A time course analysis of glucose levels was performed with glucose levels checked at t=0, 30, 60 and 120 minutes following glucose injection.

[4] = Effect of PRT5 administration on glucose levels after glucose injection in starved mice; format: in vivo, C57B1 mice; details: starting 2 days and up to 4 days after injection; 2 mg/kg glucose after overnight starvation
Experimental: The mice were divided into 4 groups. The first group was starved and checked for blood glucose levels (using an Accu-Chek® Performa device, Roche Diagnostics) one day after injection; the second group—two days after injection, the third group—three days after injection and the fourth group—four days after injection. Starvation was done overnight (the night before glucose injection), and the next day 2 mg/kg of glucose was injected to each mouse. A time course analysis of glucose levels was performed with glucose levels checked at t=0, 30, 90, 120, 150 and 240 minutes.

insulin receptors = test: Levels of insulin receptors in skeletal muscle of mice treated with PRT5; format: in vivo; details: data not shown
p53 = test: Induction of p53 expression by PRT7 (data not shown)

PRT6: novel chemokine-like secreted polypeptide from human cDNA libraries, amino acid sequence SEQ. ID. NO. 2 (MPPFSVGLVVVVNVVCLMLYESTTILRLYGIILFMRDLKLEVEDAKITIALALRNS; listed as Homo sapiens)
testosterone levels in blood serum ([1]; 0.5 μg/kg or 5 μg/kg PRT6 daily for 4 days, male Balb/C): significant increase
effect on testosterone levels of 5 μg/kg compared with 0.5 μg/kg ([1]; 5 μg/kg vs 0.5 μg/kg PRT6, daily for 4 days): much more pronounced

PRT8 N-ter: PRT8 fragment, sequence SHLFGSFAWN FLLSS (SHLFGSFAWNFLLSS; listed as Homo sapiens)
reduction of blood glucose level (IPGTT) [2]: no significant blood glucose reduction

sbPRT8: shortened C-terminal fragment of PRT8, sequence KPETCPGLLV SLYPA (KPETCPGLLVSLYPA; listed as Homo sapiens)
reduction of blood glucose level (IPGTT) [2]: very significant improvement

PRT8 C-ter: PRT8 fragment, sequence LLVSLYPA (listed as Homo sapiens)
reduction of blood glucose level (IPGTT) [2]: no significant blood glucose reduction

B1: PRT8: novel chemokine-like secreted polypeptide from human cDNA libraries, amino acid sequence SEQ. ID. NO. 4; full length PRT8 peptide (protein, listed as Homo sapiens)
chain: MLVFLKLWPQCLFFALTFFLRNCIYFKDFLSHLFGSFAWNFLLSSRSMDPTSCWTAPIWRSHRPLNSAPVSESPNYPLFTWSLKPETCPGLLVSLYPA
glucose levels compared with mice administered saline ([3]; starting 2 days after administration, 2 mg/kg glucose after overnight starvation): significantly lower
glucose-lowering effect three days following injection compared with two days ([3]; three days following PRT8 injection): more evident
reduction of blood glucose level (IPGTT) [2]: significant reduction

B2: PRT5: novel chemokine-like secreted polypeptide from human cDNA libraries, amino acid sequence SEQ. ID. NO. 1 (protein, listed as Homo sapiens)
chain: MKPMERWWSRALFTTCPVGPSGCAAGLLWPRNTDARSPLHSQTLWVCSWAALAQKHRCTVTPAQPAP
glucose levels compared with mice administered saline [4]: significantly lower
levels of insulin receptors in skeletal muscle (insulin receptors): capable of increasing the levels of insulin receptors

B3: PRT7: novel chemokine-like secreted polypeptide from human cDNA libraries, amino acid sequence SEQ. ID. NO. 3 (protein, listed as Homo sapiens)
chain: MGMIVPPSLAAAGGASTTPRLHALRLTSLLHQHLDLCLHPSPLPTPPSAPCLSGLVPPDSSLSVLDTLQV
expression of p53 (p53): can induce the expression of p53
